Measurements taken from US20260242735A1.

Tests used:
Test in all cases: alanine scan, flow cytometry, HEK293-T
[1] = target: human CD33 Q171A (human) (UniProt P20138)
[2] = target: human CD33 R98A (human) (UniProt P20138)
[3] = target: human CD33 T139A (human) (UniProt P20138)
[4] = target: human CD33 P46A (human) (UniProt P20138)
[5] = target: human CD33 T75A (human) (UniProt P20138)
[6] = target: human CD33 V165A (human) (UniProt P20138)
[7] = target: human CD33 T162A (human) (UniProt P20138)
[8] = target: human CD33 T152A (human) (UniProt P20138)
human CD33 T152A (human), sequence (P20138 18-364 T152A limits assumed): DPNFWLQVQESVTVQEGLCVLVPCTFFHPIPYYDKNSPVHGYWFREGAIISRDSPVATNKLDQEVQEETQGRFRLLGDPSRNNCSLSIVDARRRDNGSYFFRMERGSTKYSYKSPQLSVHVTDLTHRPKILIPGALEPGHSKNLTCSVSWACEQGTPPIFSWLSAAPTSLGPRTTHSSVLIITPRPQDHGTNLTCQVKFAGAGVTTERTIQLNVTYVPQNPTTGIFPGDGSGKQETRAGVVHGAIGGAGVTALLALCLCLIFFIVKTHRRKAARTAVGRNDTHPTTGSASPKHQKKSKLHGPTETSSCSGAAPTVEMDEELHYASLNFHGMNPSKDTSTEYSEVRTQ

[9] = target: human CD33 H193A (human) (UniProt P20138)
[10] = target: human CD33 G88A (human) (UniProt P20138)
human CD33 G88A (human), sequence (P20138 18-364 G88A limits assumed): as the sequence (P20138 18-364 T152A limits assumed) above, with G71A, A135T counted along it

[11] = target: human CD33 K146A (human) (UniProt P20138)
[12] = target: human CD33 R62A (human) (UniProt P20138)
[13] = target: human CD33 S194A (human) (UniProt P20138)
[14] = target: human CD33 S181A (human) (UniProt P20138)
[15] = target: human CD33 I66A (human) (UniProt P20138)
[16] = target: human CD33 G114A (human) (UniProt P20138)
[17] = target: human CD33 K130A (human) (UniProt P20138)
human CD33 K130A (human), sequence (P20138 18-364 K130A limits assumed): as the sequence (P20138 18-364 T152A limits assumed) above, with K113A, A135T counted along it

[18] = target: human CD33 V106A (human) (UniProt P20138)
[19] = target: human CD33 Y127A (human) (UniProt P20138)
[20] = target: human CD33 F117A (human) (UniProt P20138)
[21] = target: human CD33 S71A (human) (UniProt P20138)
[22] = target: human CD33 L78A (human) (UniProt P20138)
[23] = target: human CD33 S97A (human) (UniProt P20138)
human CD33 S97A (human), sequence (P20138 18-364 S97A limits assumed): as the sequence (P20138 18-364 T152A limits assumed) above, with S80A, A135T counted along it

[24] = target: human CD33 N160A (human) (UniProt P20138)
[25] = target: human CD33 P132A (human) (UniProt P20138)
human CD33 P132A (human), sequence (P20138 18-364 P132A limits assumed): as the sequence (P20138 18-364 T152A limits assumed) above, with P115A, A135T counted along it

[26] = target: human CD33 R122A (human) (UniProt P20138)
[27] = target: human CD33 S115A (human) (UniProt P20138)
[28] = target: human CD33 V136A (human) (UniProt P20138)
human CD33 V136A (human), sequence (P20138 18-364 V136A limits assumed): as the sequence (P20138 18-364 T152A limits assumed) above, with V119A, A135T counted along it

[29] = target: human CD33 A183S (human) (UniProt P20138)
human CD33 A183S (human), sequence (P20138 18-364 A183S limits assumed): as the sequence (P20138 18-364 T152A limits assumed) above, with A135T, A166S counted along it

[30] = target: human CD33 V73A (human) (UniProt P20138)
[31] = target: human CD33 L93A (human) (UniProt P20138)
[32] = target: human CD33 P150A (human) (UniProt P20138)
[33] = target: human CD33 D107A (human) (UniProt P20138)
[34] = target: human CD33 H143A (human) (UniProt P20138)
human CD33 H143A (human), sequence (P20138 18-364 H143A limits assumed): as the sequence (P20138 18-364 T152A limits assumed) above, with H126A, A135T counted along it

[35] = target: human CD33 P175A (human) (UniProt P20138)
[36] = target: human CD33 R144A (human) (UniProt P20138)
[37] = target: human CD33 I67A (human) (UniProt P20138)
[38] = target: human CD33 G156A (human) (UniProt P20138)
human CD33 G156A (human), sequence (P20138 18-364 G156A limits assumed): as the sequence (P20138 18-364 T152A limits assumed) above, with A135T, G139A counted along it

[39] = target: human CD33 D112A (human) (UniProt P20138)
[40] = target: human CD33 G64A (human) (UniProt P20138)
[41] = target: human CD33 G94A (human) (UniProt P20138)
[42] = target: human CD33 F90A (human) (UniProt P20138)
[43] = target: human CD33 N113A (human) (UniProt P20138)
human CD33 N113A (human), sequence (P20138 18-364 N113A limits assumed): as the sequence (P20138 18-364 T152A limits assumed) above, with N96A, A135T counted along it

[44] = target: human CD33 Y59A (human) (UniProt P20138)
[45] = target: human CD33 R69A (human) (UniProt P20138)
human CD33 R69A (human), sequence (P20138 18-364 R69A limits assumed): as the sequence (P20138 18-364 T152A limits assumed) above, with R52A, A135T counted along it

human CD33 T75A (human), sequence (P20138 18-364 T75A limits assumed): as the sequence (P20138 18-364 T152A limits assumed) above, with T58A, A135T counted along it
human CD33 T139A (human), sequence (P20138 18-364 T139A limits assumed): as the sequence (P20138 18-364 T152A limits assumed) above, with T122A, A135T counted along it
human CD33 Q171A (human), sequence (P20138 18-364 Q171A limits assumed): as the sequence (P20138 18-364 T152A limits assumed) above, with A135T, Q154A counted along it

Refmab #7 (WM53) (antibody) gave a Mean % WT Binding [1] of 121 % WT binding, a Mean % WT Binding [2] of 138 % WT binding and a Mean % WT Binding [3] of 121 % WT binding. For the same substance, the Mean % WT Binding [4] was 75.3 % WT binding, the Mean % WT Binding [5] was 115 % WT binding and the Mean % WT Binding [6] was 118 % WT binding. The Mean % WT Binding [7] was 103 % WT binding, the Mean % WT Binding [8] was 102 % WT binding and the Mean % WT Binding [9] was 107 % WT binding. It also gave a Mean % WT Binding [10] of 115 % WT binding, a Mean % WT Binding [11] of 91.1 % WT binding and a Mean % WT Binding [12] of 114 % WT binding. The Mean % WT Binding [13] was 112 % WT binding, the Mean % WT Binding [14] was 86.7 % WT binding and the Mean % WT Binding [15] was 117 % WT binding. It also gave a Mean % WT Binding [16] of 94.6 % WT binding, a Mean % WT Binding [17] of 148 % WT binding and a Mean % WT Binding [18] of 126 % WT binding. It also gave a Mean % WT Binding [19] of 175 % WT binding, a Mean % WT Binding [20] of 132 % WT binding and a Mean % WT Binding [21] of 104 % WT binding. The Mean % WT Binding [22] was 88.9 % WT binding, the Mean % WT Binding [23] was 128 % WT binding and the Mean % WT Binding [24] was 112 % WT binding. For the same substance, the Mean % WT Binding [25] was 104 % WT binding, the Mean % WT Binding [26] was 25.1 % WT binding and the Mean % WT Binding [27] was 95.1 % WT binding. It also gave a Mean % WT Binding [28] of 85.9 % WT binding, a Mean % WT Binding [29] of 102 % WT binding and a Mean % WT Binding [30] of 113 % WT binding. The Mean % WT Binding [31] was 102 % WT binding, the Mean % WT Binding [32] was 115 % WT binding and the Mean % WT Binding [33] was 113 % WT binding. It also gave a Mean % WT Binding [34] of 112 % WT binding, a Mean % WT Binding [35] of 126 % WT binding and a Mean % WT Binding [36] of 120 % WT binding. For the same substance, the Mean % WT Binding [37] was 135 % WT binding, the Mean % WT Binding [38] was 112 % WT binding and the Mean % WT Binding [39] was 47.9 % WT binding. For the same substance, the Mean % WT Binding [40] was 119 % WT binding, the Mean % WT Binding [41] was 99.2 % WT binding and the Mean % WT Binding [42] was 83.3 % WT binding. For the same substance, the Mean % WT Binding [43] was 80 % WT binding, the Mean % WT Binding [44] was 127 % WT binding and the Mean % WT Binding [45] was 146 % WT binding.
